Experimental data taken from patent publication US20200123233A1 (published 2020).

Target: T1, Glycoprotein G of rabies virus strain CVS-11 (Challenge Virus Standard-11, ATCC VR 959) (rabies virus, strain CVS-11)
T1 chain: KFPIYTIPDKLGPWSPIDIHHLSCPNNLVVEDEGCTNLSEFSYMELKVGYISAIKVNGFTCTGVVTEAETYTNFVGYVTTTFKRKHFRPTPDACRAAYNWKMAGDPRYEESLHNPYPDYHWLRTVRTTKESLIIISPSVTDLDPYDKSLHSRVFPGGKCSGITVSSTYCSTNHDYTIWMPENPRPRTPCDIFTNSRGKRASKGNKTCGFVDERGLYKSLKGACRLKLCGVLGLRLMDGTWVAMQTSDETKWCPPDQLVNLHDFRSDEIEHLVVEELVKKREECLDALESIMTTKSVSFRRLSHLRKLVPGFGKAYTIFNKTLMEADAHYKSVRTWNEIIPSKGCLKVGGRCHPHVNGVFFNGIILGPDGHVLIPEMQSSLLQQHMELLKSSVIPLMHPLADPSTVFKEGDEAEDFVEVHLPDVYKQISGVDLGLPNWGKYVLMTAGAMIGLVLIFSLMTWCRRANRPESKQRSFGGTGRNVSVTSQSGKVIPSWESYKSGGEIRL
Test: cell-based or functional assay

B1: 213H7-15GS-214 F8 (VHH)
chain: EVQLVESGGGLVQAGGSLRLSCAASGRTLSSYRMGWFRQAPGKEREFISTISWNGRSTYYADSVKGRFIFSEDNAKNTVYLQMNSLKPEDTAVYYCAAALIGGYYSDVDAWSYWGPGTQVTVSSGGGGSGGGGSGGGGSEVQLVESGGDLVQAGGSLRLSCVASGSTYSINAMGWYRQAPGKLRELVAAFRTGGSTDYADSVKGRFTISRDTAKNTVYLQMNSLKPEDTAVYYCNAEVIYYPYDYWGQGTQVTVSS
Which “CVS neutralizing antibody titre, nM IC50 (RFFIT)” value does the source give for B1 here?
Its value is 0.33 nM.

And the “Potency (IU/nM) increase versus monovalent (RFFIT)” value?
The value was 271 fold.
